Laboratory results taken from doi:10.1101/2023.02.11.528153.

Target: MERS-CoV spike RBD fragment (human betacoronavirus 2c EMC/2012 …, UniProt K0BRG7 367-606)
Test: MST

ACATAGGCGTT (ssDNA) [Labeled complementary strand]
binding result: no binding
